According to US20200208162:

Experiments:
[1] = system: TLNmir604S3Fw TALEN (encoded by cTNmir604Fw3-01); assay: cell_activity; details: as pair with P2; maize NP2222 immature embryos, Chry5d2 delivery of TALEN and donor; 5.6-24.9% with other strain combinations; printed half-site ends in T …
[2] = system: TLNmir604S3Rv TALEN (encoded by cTNmir604Rv3-01); assay: cell_activity; details: as pair with P1; maize NP2222 immature embryos, Chry5d2 delivery of TALEN and donor; 5.6-24.9% with other strain combinations

| Sequence | activity [1] [%] | activity [2] [%] |
| --- | --- | --- |
| TCCGTGCAGTGCAGTGT (double strand) [MIR604FR3 forward half-site] | 33.3 |  |
| TCCTAAACAAAGGAGGT (double strand) [MIR604FR3 reverse half-site] |  | 33.3 |
